Test [1] has as its target SARS-CoV-2 S variant K417N/E484K/N501Y (B.1.351, SA variant; beta lineage) carried by pseudotyped virus (SARS-CoV-2 B.1.351), P0DTC2. Description: cell-based or functional assay.
Test [2] has as its target SARS-CoV-2 S variant 484K carried by pseudotyped virus (SARS-CoV-2), P0DTC2. Description: cell-based or functional assay.
Test [3] concerns the target SARS CoV-2 omicron variant recombinant stabilized spike trimer (SARS-CoV-2 omicron variant).
In test [4] the target is SARS CoV-2 omicron variant spike RBD (SARS-CoV-2 omicron variant). Description: ELISA on omicron variant RBD (panel RBD), OD450. A general note: In an ELISA, binding on a coated surface is turned into a signal by an enzyme label.

Broadly, the EC50 (read off the curve) is the concentration needed to bring the measured effect to its halfway point.

A value given as a limit tells only on which side of the number the result lay.

B1: SKD chimeric bovine-human IgG1 (ultralong CDR3) (antibody)
VH: QVQLRESGPSLVKPSQTLSLTCTASGFSLSDKAVGWVRQAPGKALEWLGSIDTGGNTGYNPGLKSRLSITKDNSKSQVSLSVSSVTTEDSATYYCTTVHQRTSEKRSCPGGSSRRYPSGASCDVSGGACACYVSNCRGVLCPTLNEIVAYTYEWHVDAWGQGLLVTVSS
VL: QAVLNQPSSVSGSLGQRVSITCSGSSSNVGNGYVSWYQLIPGSAPRTLIYGDTSRASGVPDRFSGSRSGNTATLTISSLQAEDEADYFCASAEDSSSNAVFGSGTTLTVL
Turning to B1, the EC50 (pM), pseudovirus luciferase assay in test [1] and in test [2] was more than 1000 pM in each case. The molecule further returned a Neutralization of Pseudovirus (ng/mL; parameter not named) in test [1] of more than 1000 ng/mL.

B2: SKM chimeric bovine-human IgG1 (ultralong CDR3) (antibody)
VH: QVQLRESGPSLVKPSQTLSLTCTASGFSLSDKAVGWVRQAPGKALEWLGSIDTGGNTGYNPGLKSRLSITKDNSKSQVSLSVSSVTTEDSATYYCTTVHQETLRSCPDGYIDNSGCTADWGCAALDCWRRRFGYHSTDPSHYTGATYIYTYSLHIDAWGQGLLVTVSS
VL: QAVLNQPSSVSGSLGQRVSITCSGSSSNVGNGYVSWYQLIPGSAPRTLIYGDTSRASGVPDRFSGSRSGNTATLTISSLQAEDEADYFCASAEDSSSNAVFGSGTTLTVL
In the case of B2, in test [1], the EC50 (pM), pseudovirus luciferase assay is more than 1000 pM and the Neutralization of Pseudovirus (ng/mL; parameter not named) is more than 1000 ng/mL. For the same molecule, in test [2], the EC50 (pM), pseudovirus luciferase assay was more than 1000 pM.

B3: R2D9 chimeric bovine-human IgG1 (ultralong CDR3) (antibody)
VH: QVQLRESGPSLVKPSQTLSLTCTASGFSLSDKAIGWVRQAPGKALEWLGSIDTRGNTGYNPGLKSRLSITKDSSKSQVSLSVNSVTTEDSATYLCAIVQQITHKTCPNGYNWFDRCCSWDGTCGDGCCSNRAWPSGNGRADSSIGETYGYEFHVAAWGQGLLVTVSS
VL: QAVLNQPSSVSGSLGQRVSITCSGSSSNVGNGYVSWYQLIPGSAPRTLIYGDTSRASGVPDRFSGSRSGNTATLTISSLQAEDEADYFCASAEDSSSNAVFGSGTTLTVL
For B3, the EC50 (read off the curve) in test [3] and in test [4] was 0.4 nM throughout.

B4: R4C1 chimeric bovine-human IgG1 (ultralong CDR3) (antibody)
VH: QVQLRESGPSLVKPSQTLSLTCTASGFSLSDKAVGWVRQAPGKPLEWLGSIDTAENTGYNPGLKSRLSITKDNSKSQVSLSVSSVTTEDSATYYCATVHQKTRKEKNCPDGYIYSSNTASGYDCGVWICRRVGSAFCSRTGDYTSPSEFDIYEFYVEGWGQGLLVTVSS
VL: QAVLNQPSSVSGSLGQRVSITCSGSSSNVGNGYVSWYQLIPGSAPRTLIYGDTSRASGVPDRFSGSRSGNTATLTISSLQAEDEADYFCASAEDSSSNAVFGSGTTLTVL
B4 yielded a Neutralization of Pseudovirus (ng/mL; parameter not named) in test [1] of 375 ng/mL.

These data come from patent publication US20260184766A1.
